Laboratory results from patent publication US20090099826A1 (published 2009).

T1: BIR3 domain of XIAP (residues 252-350), wild type
T1 chain: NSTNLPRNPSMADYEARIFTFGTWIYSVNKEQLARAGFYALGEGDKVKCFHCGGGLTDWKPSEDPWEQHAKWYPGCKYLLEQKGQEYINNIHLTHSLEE

B1: caspase-9, wild-type, processed catalytic domain (residues 139-315 and 316-416) (protein)
chain 1: VGALESLRGNADLAYILSMEPCGHCLIINNVNFCRESGLRTRTGSNIDCEKLRRRFSSLHFMVEVKGDLTAKKMVLALLELAQQDHGALDCCVVVILSHGCQASHLQFPGAVYGTDGCPVSVEKIVNIFNGTSCPSLGGKPKLFFIQACGGEQKDHGFEVASTSPEDESPGSNPEPD
chain 2: ATPFQEGLRTFDQLDAISSLPTPSDIFVSYSTFPGFVSWRDPKSGSWYVETLDDIFEQWAHSEDLQSLLLRVANAVSVKGIYKQMPGCFNFLRKKLFFKTS
B2: Procaspase-9 zymogen (residues 139-416) (enzyme, mammalian, UniProt P55211 139-416, looked up)
chain: VGALESLRGNADLAYILSMEPCGHCLIINNVNFCRESGLRTRTGSNIDCEKLRRRFSSLHFMVEVKGDLTAKKMVLALLELAQQDHGALDCCVVVILSHGCQASHLQFPGAVYGTDGCPVSVEKIVNIFNGTSCPSLGGKPKLFFIQACGGEQKDHGFEVASTSPEDESPGSNPEPDATPFQEGLRTFDQLDAISSLPTPSDIFVSYSTFPGFVSWRDPKSGSWYVETLDDIFEQWAHSEDLQSLLLRVANAVSVKGIYKQMPGCFNFLRKKLFFKTS
notes: range 139-416; Used here for self-association; also called unprocessed procaspase-9 zymogen

How the values were obtained:
[1] = target: XIAP-BIR3 point mutant P325G
[2] = target: XIAP-BIR3 point mutant L344A
[3] = target: XIAP-BIR3 point mutant G326E
[4] = target: T1, BIR3 domain of XIAP (residues 252-350), …
[5] = target: XIAP-BIR3 point mutant H343A
[6] = target: the molecule itself; assay: sedimentation equilibrium, analytical ultracentrifugation (self-association)
Procedure: To accurately determine the basal state of caspase-9 in solution, the molecular weight of caspase-9 was examined by sedimentation equilibrium analysis using analytical ultra-centrifugation (Table 2). […] In addition, this analysis confirms that the XIAP-BIR3 domain forms a stable hetero-dimer with the caspase-9 monomer (Table 2).
Analytical ultracentrifugation. Protein samples were prepared in 10 mM Tris-HCl, pH 8.0, 100 mM NaCl, and 2 mm DTT. All sedimentation equilibrium experiments were carried out at 4° C. using a Beckman Optima XL-A analytical ultracentrifuge equipped with an An60 Ti rotor and using six-channel, 12 mm path length, charcoal-filled Epon centerpieces and quartz windows. Data were collected at four rotor speeds (10,000, 15,000, 20,000, and 25,000 rpm) and represent the average of twenty scans using a scan step-size of 0.001 cm. Partial specific volumes and solution density were calculate using the Sednterp program. Data were analyzed using the WinNONOLIN program from the Analytical Ultracentrifugation Facility at the University of Connecticut (Storrs, Conn.).

Protein	cleavage of procaspase-3 (C163A) by caspase-9, SDS-PAGE [1]	cleavage of procaspase-3 (C163A) by caspase-9, SDS-PAGE [2]	cleavage of procaspase-3 (C163A) by caspase-9, SDS-PAGE [3]	cleavage of procaspase-3 (C163A) by caspase-9, SDS-PAGE [4]	cleavage of procaspase-3 (C163A) by caspase-9, SDS-PAGE [5]	binding result [6]
B1	led to loss of this inhibition as judged by the cleavage of procaspase-3 precursor	led to loss of this inhibition as judged by the cleavage of procaspase-3 precursor	led to loss of this inhibition as judged by the cleavage of procaspase-3 precursor	incubation with the WT BIR3 protein (residues 252-350) resulted in the efficient inhibition of the activity (lane 2)	led to loss of this inhibition as judged by the cleavage of procaspase-3 precursor	–
B2	–	–	–	–	–	no binding (tested: 20 µM)
